Test [1] has as its target transient receptor potential melastatin subfamily member 4 (TRPM4), mouse (mouse) (UniProt Q7TN37). The test is described as follows: co-immunoprecipitation with anti-TRPM4 antibody from cortical lysates of mice 2 h after i.p. injection of small-molecule compound P4 (40 mg/kg), against control mice.
Test [2] has the same target. In words: co-immunoprecipitation with anti-TRPM4 antibody from cortical lysates of mice 6 h after i.p. injection of small-molecule compound P4 (40 mg/kg), against control mice.

UniProt Q7TN37, sequence (Q7TN37 whole entry): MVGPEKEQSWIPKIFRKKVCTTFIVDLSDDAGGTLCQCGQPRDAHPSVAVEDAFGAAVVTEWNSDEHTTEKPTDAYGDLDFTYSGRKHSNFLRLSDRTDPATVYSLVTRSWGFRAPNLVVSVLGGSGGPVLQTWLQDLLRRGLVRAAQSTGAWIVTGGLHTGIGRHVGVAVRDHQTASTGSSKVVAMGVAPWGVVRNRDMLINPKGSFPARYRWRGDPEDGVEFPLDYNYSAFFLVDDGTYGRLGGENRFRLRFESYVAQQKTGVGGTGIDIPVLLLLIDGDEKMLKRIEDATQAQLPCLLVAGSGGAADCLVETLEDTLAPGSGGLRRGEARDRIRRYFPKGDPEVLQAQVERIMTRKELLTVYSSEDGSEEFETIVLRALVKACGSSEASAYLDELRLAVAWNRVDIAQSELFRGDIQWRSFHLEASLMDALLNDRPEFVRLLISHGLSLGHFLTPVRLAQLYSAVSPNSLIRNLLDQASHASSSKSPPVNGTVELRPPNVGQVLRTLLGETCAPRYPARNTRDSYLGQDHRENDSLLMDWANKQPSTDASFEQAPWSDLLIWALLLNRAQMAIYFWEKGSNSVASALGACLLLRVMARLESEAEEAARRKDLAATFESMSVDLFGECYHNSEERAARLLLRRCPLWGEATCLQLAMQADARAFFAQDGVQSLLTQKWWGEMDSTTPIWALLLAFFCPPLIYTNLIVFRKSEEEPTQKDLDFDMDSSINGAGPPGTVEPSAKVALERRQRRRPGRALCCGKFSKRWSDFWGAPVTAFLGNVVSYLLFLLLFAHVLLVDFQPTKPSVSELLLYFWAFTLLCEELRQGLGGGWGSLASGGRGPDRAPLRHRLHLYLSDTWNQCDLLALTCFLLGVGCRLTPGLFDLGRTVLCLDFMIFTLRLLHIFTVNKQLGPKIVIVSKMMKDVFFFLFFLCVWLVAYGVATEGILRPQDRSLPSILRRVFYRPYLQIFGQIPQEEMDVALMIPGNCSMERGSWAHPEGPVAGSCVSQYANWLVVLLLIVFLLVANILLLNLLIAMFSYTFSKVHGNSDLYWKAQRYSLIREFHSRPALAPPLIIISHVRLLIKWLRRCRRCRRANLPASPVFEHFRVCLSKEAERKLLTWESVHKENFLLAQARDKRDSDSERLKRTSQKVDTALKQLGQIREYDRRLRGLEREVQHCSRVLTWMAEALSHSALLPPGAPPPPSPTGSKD

For the substance “GRIN2B subunit of the NMDA receptor, mouse (from UniProt Q01097 27-1482)”, the reduction in NMDA receptor/TRPM4 complex formation in test [1] was 51%; in test [2] it was 61%.
